Reference: PMC4828840, “Structural insight into the cooperation of chloroplast chaperonin subunits” (BMC Biology, 2016)
Values belong to the molecule of their own block, whether it stands above or below them.

Legend:
[1] = biological target: CPN60β1 homo-oligomer (Chlamydomonas reinhardtii); test: crystal structure; apo CPN60β1 homo-oligomer, 3.8 Å, space group P21, molecular replacement with apo GroEL
[2] = biological target: CPN60β1 homo-oligomer (Chlamydomonas reinhardtii)
GroEL = biological target: T1, GroEL (E. coli, UniProt P0A6F5 1-548); test: SEC; gel filtration, Superdex 200; 2 μM chaperonin and 10 μM GroES; buffer with 50 μM AMP-PNP; fractions on SDS-PAGE, Coomassie; settings: both partners purified
T1 construct: GroEL, group I chaperonin of E. coli; Purification of proteins is in Additional file 1; copies: 14

stoichiometry N [1]: 14 subunits
Molecule: CPN60β1 homo-oligomer (natural protein)

inhibition of the ATPase activity of CPN60β1 (0.2 μM chaperonin, 0.4 μM co-chaperonin, 25 °C) [2]: 50%
Molecule: mitochondrial co-chaperonin Hsp10 from mouse (from UniProt Q64433 1-102) (natural protein)

binding result (GroEL): binds
B1: GroES (natural protein, E. coli, UniProt P0A6F9 1-97, looked up)
chain: MNIRPLHDRVIVKRKEVETKSAGGIVLTGSAAAKSTRGEVLAVGNGRILENGEVKPLDVKVGDIVIFNDGYGVKSEKIDNEEVLIMSESDILAIVEA
notes: GroES, co-chaperonin of E. coli; Purification of proteins is in Additional file 1
